# Test results reported in patent US9114109B2, “Five-coordinate neuroglobin and use thereof as a blood substitute” (University of Pittsburgh—Of the Commonwealth System of …, priority 2009, dated 2015).
# Numbering of substitutions follows the chain as printed. Names and notes keep the numbering of the source. Like-named read-outs stand apart in the source and are kept apart here.
# B1: Myoglobin: horse heart myoglobin, purified by Sephadex G-25 gel filtration (protein, UniProt P68082 2-154, looked up)
# Myoglobin: GLSDGEWQQVLNVWGKVEADIAGHGQEVLIRLFTGHPETLEKFDKFKHLKTEAEMKASEDLKKHGTVVLTALGGILKKKGHHEAELKPLAQSHATKHKIPIKYLEFISDAIIHVLHSKHPGDFGADAQGAMTKALELFRNDIAAKYKELGFQG
# B2: neuroglobin: heme containing, monomeric, 16.9 kDa protein; literature values of the background section (protein, listed as Homo sapiens)
# chain: MERPEPELIRQSWRAVSRSPLEHGTVLFARLFALEPDLLPLFQYNCRQFSSPEDCLSSPEFLDHIRKVMLVIDAAVTNVEDLSSLEEYLASLGRKHRAVGVKLSSFSTVGESLLYMLEKCLGPAFTPATRAAWSQLYGAVVQAMSRGWDGE
# B3: C46A: recombinant human neuroglobin mutant with cysteine 46 replaced by alanine (protein, UniProt Q9NPG2 1-151, looked up, variant C46A)
# Neuroglobin: B2 chain with C46A
# B4: WT SH: wild-type human neuroglobin without disulfide bond, cysteines reduced by incubation with 10 mM DTT (protein, UniProt Q9NPG2 1-151, looked up)
# Neuroglobin: B2 chain
# modifications: cysteines reduced with DTT
# notes: wild-type human neuroglobin without disulfide bond, cysteines reduced by incubation with 10 mM DTT
# B5: C55A: recombinant human neuroglobin mutant with cysteine 55 replaced by alanine, six-coordinate (protein, UniProt Q9NPG2 1-151, looked up, variant C55A)
# Neuroglobin: B2 chain with C55A
# B6: mouse neuroglobin: deoxy mouse neuroglobin of a cited study (Petersen et al., 2008) (protein, UniProt Q9ER97 1-151, looked up)
# Neuroglobin: B2 chain with P6S, A15V, D37S, C46G, A90T, K102R, A124D, A131T, Q135R
# B7: WT SS: recombinant wild-type human neuroglobin (SEQ ID NO: 8), as purified with the C46-C55 disulfide bond formed (protein, listed as Homo sapiens)
# chain: B2 chain
# modifications: C46-C55 disulfide
# B8: H64L: stable five-coordinate mutant of human neuroglobin, His64 to Leu substitution, SEQ ID NO: 9 (protein)
# chain: B2 chain with H64L
# Assays:
# [1] = system: isolated rat liver mitochondria; assay: Hypoxic inhibition of respiration of isolated mitochondria; assay type: cell-based; conditions: for inhibition of respiration, incubated alone (in words): nitrite 20 μM or protein 5 μM alone; for inhibition of respiration (cyanide = 100%): 5 μM protein with 20 μM nitrite, hypoxia
# Experimental: (§1) Mitochondria were isolated from the livers of male Sprague Dawley rats and incubated with wild-type or mutant Ngb proteins in a sealed, stirred chamber at 37° C. State 3 respiration was stimulated with succinate (15 mM) and ADP (1 mM) and oxygen consumption was measured with a Clark-type oxygen electrode. To measure inhibition of respiration in hypoxic conditions, respiring mitochondria were allowed to consume oxygen until the chamber became anoxic and then the chamber lid was removed to allow the diffusion of air back into the chamber. The rate of mitochondrial respiration was greater than the rate of oxygen entering the chamber such that the oxygen electrode trace remained at zero while the mitochondria were respiring. Nitrite was added to the chamber prior to the removal of the lid and deviation of the oxygen trace from a zero reading signified a decrease in respiration rate. All experiments were performed under conditions where substrates were not limiting. The extent of respiratory inhibition was quantified by measuring the time from equilibration of the mitochondria with air to the time when the oxygen trace deviated from zero. This time to inhibition was expressed as a percentage of maximal inhibition, where 100% inhibition was defined as the time to inhibition in the presence of cyanide and the time to the exhaustion of substrates was used as a measure of 0% inhibition. Similar experiments were performed with SHSY5Y cells suspended in the respirometer and treated with the uncoupler FCCP (5 μM) to measure hypoxic inhibition of cellular respiration.
# [2] = Anaerobic reaction of deoxygenated globins with excess nitrite (nitrite reductase kinetics, absorption / stopped-flow spectroscopy); assay type: biochemical; conditions: for rate of nitrite reduction (in words): cysteine to alanine mutants; for relative percentage of the total absorbance change (Soret peak 425 nm) in the first 60 minutes: 0.1 M HEPES pH 7.4, H64L-Ngb normalized to 100%
# Experimental: Oxygen contamination was prevented by application of positive argon pressure without a channel for gas escape. Concentrations of single species during reactions were determined by least squares deconvolution of the visible absorption spectrum into standard reference spectra using Microsoft Excel analysis. OxyNgb was included to confirm successful deoxygenation before the reaction. […] Fast kinetic studies were performed using an Applied Photophysics DX-17 stopped-flow instrument equipped with rapid-scanning diode array detection. […] To determine bimolecular rate constants all reactions were analyzed with Pro-K software (Applied Photophysics) using singular value decomposition followed by fitting of the reduced data matrix to a pseudo-first order kinetic model.
# [3] = cited from earlier work
# [4] = Determination of nitrite binding constants to met-Ngb (difference spectra titration); conditions: met-Ngb 10 μM, 200 mM phosphate buffer, pH 7.4, 25° C.; read-out: Kd (NO2^−)
# Experimental: To determine the binding constant of nitrite to metNgb, 10 μM wild type and mutant Ngb in 200 mM phosphate buffer, pH 7.4, were incubated in a cuvette at 25° C. with increasing concentrations of nitrite and the UV—visible spectra were recorded after each increase in nitrite concentration. The constant KD for each protein was determined by interpolation of the absorbance data following procedures in Nicolis et al. (Biochem J 407:89-99, 2007).
# [5] = Reaction of met-Ngb with nitrite to produce nitrosyl-Ngb (nitrite ferric heme reduction); assay type: biochemical; conditions: met-Ngb with nitrite in the presence of dithionite
# [6] = EPR spectroscopy of iron-nitrosyl-heme formation from nitrite; assay type: biochemical; conditions: 1 mM nitrite; for rate of iron-nitrosyl-Ngb / NO formation by EPR (in words): 40±5 μM protein
# Experimental: Iron nitrosyl species were measured by EPR spectroscopy using a Bruker EMX 10/12 spectrometer operating at 9.4 GHz, 5-G modulation, 10.1-milliwatt power, 327.68-ms time constant and 163.84-s scan over 600 G at 110 K as described previously (Basu et al., J Biol Chem 283:32590-32597, 2008; Azarov et al., J. Biol. Chem. 280:[…], 2005). The concentrations of Mb and Ngb species were determined by performing the double integral calculation and comparing to standard samples.
# [7] = Direct measurement of NO release in gas phase (chemiluminescence); assay type: biochemical; conditions: for rate of NO detected in gas phase (in words): 20 μM Ngb, 1 mM nitrite, anaerobic
# Description: Once a stable baseline was established Ngb was reacted with a known amount of nitrite as previously described (Huang et al., J Clin Invest 115:2099-2107, 2005).
# [8] = nitrite 7-230 μM; cited from earlier work
# [9] = Midpoint redox potential of the thiol/disulfide couple in Ngb (GSH/GSSG gradient, Nernst fit of kobs); assay type: physicochemical; conditions: 37° C., 0.1 M phosphate buffer pH 7.0, GSH/GSSG
# Experimental: Wild-type and C55A mutant Ngb (50-60 μM) were incubated at 37° C. in anaerobic glove box with solutions containing various ratios of reduced (GSH) and oxidized (GSSG) glutathione, with the total GSH and GSSG concentration fixed at 25 mM in 0.1 M phosphate buffer pH=7.0. The GSH/GSSG ratio was varied to establish a gradient of redox potentials between −130 and −250 mV, calculated by the Nernst equation according to a midpoint reduction potential of −240 mV (Yi et al., J Biol Chem 284:20556-20561, 2009). After at least 1 hour incubation, glutathione was removed by passage through a G25 column and Ngb was reacted immediately with 10 mM nitrite in 0.1 M phosphate buffer pH=7.0 as described above. The observed rate constant determined at each glutathione ratio was fitted using the Nernst equation and the midpoint reduction potential of the thiol/disulfide couple of Ngb calculated.
# SHSY5Y cells = assay: Hypoxic inhibition of cellular respiration in SHSY5Y cells expressing Ngb; assay type: cell-based; conditions: cells stably transfected with GFP-tagged Ngb, nitrite added, FCCP
# Experimental: as §1, with “Similar experiments were performed with SHSY5Y cells suspended in the respirometer and treated with the uncoupler FCCP (5 μM) to measure hypoxic inhibition of cellular respiration.” left out
# [10] = cited from earlier work; remark: listed apart in the source
# SHSY5Y neuronal cells = assay: Determination of cGMP in SHSY5Y neuronal cells under hypoxia; assay type: cell-based; conditions: 6 hours hypoxia (1% oxygen), no exogenous nitrite, cells expressing the protein
# Experimental: SHSY5Y cells, expressing the GFP vector, wild type Ngb or H64L mutant Ngb were plated on Corning® CellBIND® Surface 100 mm culture dishes at a concentration of 5-7.5×10^5 cells/plate and grown to 80-90% confluence. After four days of growth, the cells were incubated for 6 hours under hypoxic conditions (1% oxygen). Following hypoxic treatment, the cGMP levels were measured using the cyclic GMP EIA Kit (Cayman Chemicals catalog #581021) according to the manufacturer's instructions. Protein levels were measured and used to normalize results.
molecule,measurement,setting,value
"O=NO [nitrite, reference compound]","inhibition of respiration, incubated alone (in words)",[1],No significant inhibition
B1,BRC of myoglobin reaction with nitrite,"[2]; 100 mM phosphate buffer with EDTA, pH 7.4, 25° C.",2.9 ± 0.2 M⁻¹ s⁻¹
B2,oxygen affinity P50,[3]; 20° C.,1-2 mmHg
same,oxygen affinity P50,[3]; after disulfide bond formation,~1 mmHg
same,oxygen affinity P50,[3]; before disulfide bond formation,about 9 mmHg
B3,rate of nitrite reduction (in words),[2],slowed down the rate of nitrite reduction to similar rates observed with Ngb having fully reduced cysteines
B4,relative percentage of the total absorbance change (Soret peak 425 nm) in the first 60 minutes,[2]; 1 mM nitrite,20%
same,rate of nitrite reduction after reduction of the disulfide bond,"[2]; cysteines reduced with 10 mM DTT, 25° C., pH 7.4",0.062 ± 0.005 M⁻¹ s⁻¹
same,slowing of nitrite reduction rate by reduction of the disulfide bond,"[2]; relative to oxidized wild type, 25° C., pH 7.4",about 2 fold
same,Kd,[4],12.6 ± 3.3 mM
same,BRC of nitrite ferric heme reduction,[5],0.0002 ± 0.0005
same,rate of iron-nitrosyl-Ngb / NO formation by EPR (in words),[6],slowed the rate of iron-nitrosyl-Ngb formation
B5,relative percentage of the total absorbance change (Soret peak 425 nm) in the first 60 minutes,[2]; 1 mM nitrite,18%
same,rate of nitrite reduction (in words),[2],slowed down the rate of nitrite reduction to similar rates observed with Ngb having fully reduced cysteines
same,Kd,[4],30.1 ± 4.5 mM
same,BRC of nitrite ferric heme reduction,[5],0.0002 ± 0.0005
same,rate of NO detected in gas phase (in words),[7],significantly decreased
same,inhibition of respiration (cyanide = 100%),[1],62±4%
B6,apparent second-order rate constant,[8],5.1 ± 0.4 M⁻¹ s⁻¹
B7,relative percentage of the total absorbance change (Soret peak 425 nm) in the first 60 minutes,[2]; 1 mM nitrite,38%
same,calculated BRC in the presence of dithionite,"[2]; 10 mM nitrite, 10 μM deoxy-Ngb, 3 mM dithionite, pH 7.4, 100 mM phosphate buffer",0.11 ± 0.01 M⁻¹ s⁻¹
same,second-order bimolecular rate constant from linear fit of kobs versus nitrite concentration,"[2]; nitrite 0.25-20 mM, 100 mM phosphate buffer, 25° C.",0.12 ± 0.02 M⁻¹ s⁻¹
same,acceleration of the reaction for each pH unit decrease,[2]; pH 6.5-8.0,10 fold
same,"slope of linear fit, order of rate dependence on [H^+]",[2]; pH 6.5-8.0,0.96
same,instantaneous bimolecular rate constant (BRC) of reaction of nitrite with Ngb,"[2]; pH 7.4, 25° C., 10 μM deoxy-Ngb, 10 mM nitrite, no dithionite",0.12 ± 0.02 M⁻¹ s⁻¹
same,instantaneous bimolecular rate constant (BRC) of reaction of nitrite with Ngb,"[2]; pH 7.4, 37° C.",0.26 ± 0.02 M⁻¹ s⁻¹
same,Kd,[4],6.2 ± 2.1 mM
same,BRC of nitrite ferric heme reduction,[5],0.0005 ± 0.0005
same,midpoint redox potential of the C46/C55 thiol/disulfide couple,[9],−194±3 mV
same,inhibition of respiration (cyanide = 100%),[1],78±6%
same,"inhibition of respiration, incubated alone (in words)",[1],No significant inhibition
same,extent of respiration inhibition compared to cyanide,SHSY5Y cells,about 15%
same,kon of NO for the ferrous Ngb heme,[10],10^8 M^−1 s^−1
B8,BRC higher than the wild type Ngb,"[2]; 100 μM nitrite, excess dithionite, relative to wild type",approximately 2000 fold
same,relative percentage of the total absorbance change (Soret peak 425 nm) in the first 60 minutes,[2]; 1 mM nitrite,100%
same,time to end point of the reaction (in words),"[2]; 1 mM nitrite, pH 7.4",reached the end point in the first minute
same,BRC from linear fit of kobs versus nitrite concentration (stopped-flow),"[2]; nitrite 10-1000 μM, 25° C., pH 7.4",259 ± 8 M⁻¹ s⁻¹
same,rate of nitrite reaction at acidic pH,[2]; pH 6.5 and 25° C.,"above 2,500 M^−1 s^−1"
same,"nitrite reduction to NO, faster than wild type neuroglobin",[2]; relative to wild type,approximately 2000 times
same,Kd,[4],0.17 ± 0.08 mM
same,BRC of nitrite ferric heme reduction,[5],0.032 ± 0.002
same,completion of iron-nitrosyl formation by EPR (in words),[6],almost complete in one minute
same,rate of iron-nitrosyl-Ngb / NO formation by EPR (in words),[6],dramatically increased the rate of NO formation
same,rate of NO detected in gas phase (in words),[7],increased
same,NO generation with increasing amounts of nitrite (in words),"[7]; 30 μM protein, nitrite 10-1000 μM",a readily proportional NO generation response was observed
same,inhibition of respiration (cyanide = 100%),[1],96±2%
same,extent of respiration inhibition compared to cyanide,SHSY5Y cells,~40%
same,cGMP levels (in words),SHSY5Y neuronal cells,significantly increased
